Experimental data reported in US20250368745A1 (published 2025).
Substitutions are numbered along the chain they refer to. Names and notes keep the numbering of the source. Values joined by “and” are separate entries in the source; they are usually repeats but may differ in a detail not shown here. Identical values can stand only once.

T1: human IL-18BP (human, UniProt O95998 31-194)
T1 construct: UniProt printed as 095998; also called hIL-18BP
T1 sequence: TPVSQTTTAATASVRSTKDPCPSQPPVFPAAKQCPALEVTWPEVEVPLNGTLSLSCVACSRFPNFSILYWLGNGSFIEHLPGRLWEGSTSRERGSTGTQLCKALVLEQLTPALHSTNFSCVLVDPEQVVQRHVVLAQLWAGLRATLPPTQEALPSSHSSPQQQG

B1: SA301a HC-Y59Q (antibody, name in Kabat numbering, V domains shown)
VH: QVQLQESGPGLVKPSQTLSLTCTVSGYSITSDYNSHWIRQPPGKGLEWIGYIHYSGSTNQNPSLKSRVTISRDTSKNQFSLKLSSVTAADTAVYYCARNYGSIYVNYFDYWGQGTLVTVSS
VL: EIVLTQSPATLSLSPGERATLSCSASSSVSYMYWYQQKPGQAPRPLIYRTSNLASGIPARFSGSGSGTDFTLTISSLEPEDFAVYYCQQYHSYPTFGGGTKVEIK
notes: IgG1 kappa
B2: SA301a HC-Y59V (antibody, name in Kabat numbering, V domains shown)
VH: B1 VH with Q60V
VL: B1 VL
notes: IgG1 kappa
B3: SA301a HC-Y59R (antibody, name in Kabat numbering, V domains shown)
VH: B1 VH with Q60R
VL: B1 VL
notes: IgG1 kappa
B4: SA301a HC-Y59S (antibody, name in Kabat numbering, V domains shown)
VH: B1 VH with Q60S
VL: B1 VL
notes: IgG1 kappa
B5: SA301a HC-Y59T (antibody, name in Kabat numbering, V domains shown)
VH: B1 VH with Q60T
VL: B1 VL
notes: IgG1 kappa
B6: SA302a HC-S31V (antibody, V domains shown)
VH: B1 VH with S31V, S35A, Q60Y
VL: B1 VL
B7: SA302a HC-S31T (antibody, V domains shown)
VH: B1 VH with S31T, S35A, Q60Y
VL: B1 VL
B8: SA302a HC-T30V (antibody, V domains shown)
VH: B1 VH with T30V, S35A, Q60Y
VL: B1 VL
B9: SA302a HC-S31H (antibody, V domains shown)
VH: B1 VH with S31H, S35A, Q60Y
VL: B1 VL
B10: SA302a HC-T30I (antibody, V domains shown)
VH: B1 VH with T30I, S35A, Q60Y
VL: B1 VL
B11: SA302a HC-T30E (antibody, V domains shown)
VH: B1 VH with T30E, S35A, Q60Y
VL: B1 VL
B12: SA302a HC-S31Q (antibody, V domains shown)
VH: B1 VH with S31Q, S35A, Q60Y
VL: B1 VL
B13: SA302a HC-T30L (antibody, V domains shown)
VH: B1 VH with T30L, S35A, Q60Y
VL: B1 VL
B14: SA302a HC-T30Q (antibody, V domains shown)
VH: B1 VH with T30Q, S35A, Q60Y
VL: B1 VL
B15: SA302a HC-D33H (antibody, V domains shown)
VH: B1 VH with D32H, S35A, Q60Y
VL: B1 VL
B16: SA302a HC-S31P (antibody, V domains shown)
VH: B1 VH with S31P, S35A, Q60Y
VL: B1 VL
B17: SA302a HC-D33I (antibody, V domains shown)
VH: B1 VH with D32I, S35A, Q60Y
VL: B1 VL
B18: SA302a HC-S31G (antibody, V domains shown)
VH: B1 VH with S31G, S35A, Q60Y
VL: B1 VL
B19: SA302a HC-T30A (antibody, V domains shown)
VH: B1 VH with T30A, S35A, Q60Y
VL: B1 VL
B20: SA302a HC-S31Y (antibody, V domains shown)
VH: B1 VH with S31Y, S35A, Q60Y
VL: B1 VL
B21: SA302a HC-T30N (antibody, V domains shown)
VH: B1 VH with T30N, S35A, Q60Y
VL: B1 VL
B22: SA302a HC-S31I (antibody, V domains shown)
VH: B1 VH with S31I, S35A, Q60Y
VL: B1 VL
B23: SA302a HC-T30F (antibody, V domains shown)
VH: B1 VH with T30F, S35A, Q60Y
VL: B1 VL
B24: SA302a HC-S31N (antibody, V domains shown)
VH: B1 VH with S31N, S35A, Q60Y
VL: B1 VL
B25: SA302a HC-T30Y (antibody, V domains shown)
VH: B1 VH with T30Y, S35A, Q60Y
VL: B1 VL
B26: SA302a HC-T30G (antibody, V domains shown)
VH: B1 VH with T30G, S35A, Q60Y
VL: B1 VL
B27: SA302a HC-T30M (antibody, V domains shown)
VH: B1 VH with T30M, S35A, Q60Y
VL: B1 VL
B28: SA302a HC-S31A (antibody, V domains shown)
VH: B1 VH with S31A, S35A, Q60Y
VL: B1 VL
B29: SA302a HC-S31F (antibody, V domains shown)
VH: B1 VH with S31F, S35A, Q60Y
VL: B1 VL
B30: SA302a HC-S31L (antibody, V domains shown)
VH: B1 VH with S31L, S35A, Q60Y
VL: B1 VL
B31: SA302a HC-S31E (antibody, V domains shown)
VH: B1 VH with S31E, S35A, Q60Y
VL: B1 VL
B32: SA302a HC-D33N (antibody, V domains shown)
VH: B1 VH with D32N, S35A, Q60Y
VL: B1 VL
B33: SA302a HC-S31M (antibody, V domains shown)
VH: B1 VH with S31M, S35A, Q60Y
VL: B1 VL
B34: SA302a HC-T30S (antibody, V domains shown)
VH: B1 VH with T30S, S35A, Q60Y
VL: B1 VL
B35: SA302a HC-H35M (antibody, V domains shown)
VH: B1 VH with S35A, H36M, Q60Y
VL: B1 VL
notes: IgG1 kappa
B36: SA302a HC-D33V (antibody, V domains shown)
VH: B1 VH with D32V, S35A, Q60Y
VL: B1 VL
notes: IgG1 kappa
B37: SA302a HC-H35E (antibody, V domains shown)
VH: B1 VH with S35A, H36E, Q60Y
VL: B1 VL
notes: IgG1 kappa
B38: SA302a HC-H35A (antibody, V domains shown)
VH: B1 VH with S35A, H36A, Q60Y
VL: B1 VL
notes: IgG1 kappa
B39: SA302a HC-H35T (antibody, V domains shown)
VH: B1 VH with S35A, H36T, Q60Y
VL: B1 VL
notes: IgG1 kappa
B40: SA302a HC-D33T (antibody, V domains shown)
VH: B1 VH with D32T, S35A, Q60Y
VL: B1 VL
notes: IgG1 kappa
B41: SA302a HC-D33G (antibody, V domains shown)
VH: B1 VH with D32G, S35A, Q60Y
VL: B1 VL
notes: IgG1 kappa
B42: SA302a HC-D33E (antibody, V domains shown)
VH: B1 VH with D32E, S35A, Q60Y
VL: B1 VL
notes: IgG1 kappa
B43: SA302a HC-H35V (antibody, V domains shown)
VH: B1 VH with S35A, H36V, Q60Y
VL: B1 VL
notes: IgG1 kappa
B44: SA302a HC-D33Q (antibody, V domains shown)
VH: B1 VH with D32Q, S35A, Q60Y
VL: B1 VL
notes: IgG1 kappa
B45: SA302a HC-D33Y (antibody, V domains shown)
VH: B1 VH with D32Y, S35A, Q60Y
VL: B1 VL
notes: IgG1 kappa
B46: SA302a HC-H35K (antibody, V domains shown)
VH: B1 VH with S35A, H36K, Q60Y
VL: B1 VL
notes: IgG1 kappa
B47: SA302a HC-H35P (antibody, V domains shown)
VH: B1 VH with S35A, H36P, Q60Y
VL: B1 VL
notes: IgG1 kappa

Target: T1, human IL-18BP
Experiment: BLI, apparent KD

Binder	Kd [nM]
B1	0.35
B2	0.38
B3	0.42
B4	1.57
B5	0.14

Target: T1, human IL-18BP
Experiment: BLI, apparent KD
Remark: another data set of the same source

Binder	Kd
B6	1.09 nM
B7	1.02 nM
B8	1.08 nM
B9	0.57 nM
B10	1.79 nM
B11	2.08 nM
B12	0.56 nM
B13	1.22 nM
B14	1.28 nM
B15	2.99 nM
B16	4.37 nM
B17	4.97 nM
B18	1.64 nM
B19	1.32 nM
B20	1.11 nM
B21	1.5 nM
B22	1.01 nM
B23	1.29 nM
B24	0.98 nM
B25	1.15 nM
B26	1.38 nM

Binder	Kd
B27	1.54 nM
B28	0.92 nM
B29	0.79 nM
B30	0.98 nM
B31	1.53 nM
B32	1.66 nM
B33	0.61 nM
B34	0.66 nM
B35	2.18 nM
B36	5.42 nM
B37	1.57 nM
B38	6.41 nM
B39	2.23 nM
B40	5.17 nM and 8.95 nM
B41	3.95 nM
B42	1.76 nM
B43	2.42 nM
B44	2.92 nM
B45	3.79 nM
B46	0.44 nM
B47	0.88 nM
